{"source": "paper PMC8044140", "about": "(Communications Biology, 2021)", "molecules": {"B1": {"name": "pefAB operator 38 bp (dsDNA)", "DNA 1": "GCTATTATAAAATAGTTCTCACGATAACTAAAATAATG", "DNA 2": "CATTATTTTAGTTATCGTGAGAACTATTTTATAATAGC"}, "B2": {"name": "target DNA (operon not stated) (dsDNA)", "DNA 1": "TAAAATAGTTCTCACGATAACTATTAAA", "DNA 2": "TTTAATAGTTATCGTGAGAACTATTTTA"}, "B3": {"name": "pefRCD operator 28 bp (EMSA) (dsDNA)", "DNA 1": "TAAAATAGTTCTCACGATAACTATTAAA", "DNA 2": "TTTAATAGTTATCGTGAGAACTATTTTA"}, "B4": {"name": "nontarget DNA (dsDNA)", "DNA 1": "GTTTTAAAACGACCTCTGTAGCGGTCGTTAAAGG", "DNA 2": "CCTTTAACGACCGCTACAGAGGTCGTTTTAAAAC"}, "B5": {"name": "pefRCD operator for crystal (dsDNA)", "DNA 1": "TAAAATAGTTCTCACGATAACTATTAAAT", "DNA 2": "ATTTAATAGTTATCGTGAGAACTATTTTA"}}, "key": {"[1]": {"biological_target": "PefR (porphyrin-regulated efflux regulator) from Streptococcus agalactiae, non-His-tagged (Streptococcus agalactiae)", "assay": "SEC; gel filtration of purified apo-PefR (heme-free); single peak, estimated ~35 kDa against ca. 17 kDa for the monomer"}, "[2]": {"biological_target": "PefR (porphyrin-regulated efflux regulator) from Streptococcus agalactiae, non-His-tagged (Streptococcus agalactiae)", "assay": "SEC; gel filtration of holo-PefR (heme-bound)"}, "[3]": {"biological_target": "T1, PefR (holo-PefR, ferrous heme-bound) (Streptococcus agalactiae, UniProt R4Z9I5)", "T1 construct": "gene AX245_08385; recombinant holo-PefR, homodimer", "T1 sequence (R4Z9I5 1-146)": "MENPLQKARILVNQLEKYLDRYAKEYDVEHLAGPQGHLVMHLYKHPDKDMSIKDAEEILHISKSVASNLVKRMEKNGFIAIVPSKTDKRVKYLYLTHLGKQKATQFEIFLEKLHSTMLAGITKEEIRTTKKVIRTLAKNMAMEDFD", "assay_type": "binding"}, "[4]": {"biological_target": "T2, PefR (porphyrin-regulated efflux regulator) (Streptococcus agalactiae, UniProt R4Z9I5)", "T2 construct": "gene AX245_08385; recombinant PefR, C-terminal His tag removed with HRV3C protease; homodimer, two hemes per dimer", "T2 sequence (R4Z9I5 1-146)": "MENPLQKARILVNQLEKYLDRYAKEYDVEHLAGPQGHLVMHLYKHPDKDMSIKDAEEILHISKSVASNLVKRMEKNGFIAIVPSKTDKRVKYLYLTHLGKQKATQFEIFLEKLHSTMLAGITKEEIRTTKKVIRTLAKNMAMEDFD", "assay": "biochemical", "assay_type": "binding"}, "[5]": {"biological_target": "PefR H114A (Streptococcus agalactiae, UniProt Q8E4J9 1-146, H114A)", "assay": "fluorescence polarization; apo (heme-free); 1:1 dimer:dsDNA; EMSA: 20 mM Tris-HCl pH 7.4, 50 mM KCl, 5% glycerol, 0.2 M MgCl2, room temperature; FP: 40 mM HEPES/Na pH 7.4, 500 mM NaCl, 10% glycerol, 10 nM DNA, room temperature", "conditions": "protein: recombinant; tags: C-terminal HRV3C site-6xHis, removed; chain copies: 2; label: 5'-FAM on antisense strand; blunt"}, "[6]": {"biological_target": "T3, PefR (Streptococcus agalactiae, UniProt Q8E4J9 1-146)", "T3 sequence": "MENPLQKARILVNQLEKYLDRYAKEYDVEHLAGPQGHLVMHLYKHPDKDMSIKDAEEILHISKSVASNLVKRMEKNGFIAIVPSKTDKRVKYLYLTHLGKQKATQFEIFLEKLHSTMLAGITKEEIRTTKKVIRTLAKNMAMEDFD", "assay": "fluorescence polarization; apo (heme-free); 1:1 dimer:dsDNA; 500 mM NaCl; EMSA: 20 mM Tris-HCl pH 7.4, 50 mM KCl, 5% glycerol, 0.2 M MgCl2, room temperature; FP: 40 mM HEPES/Na pH 7.4, 500 mM NaCl, 10% glycerol, 10 nM DNA, room temperature", "conditions": "protein: recombinant; tags: C-terminal HRV3C site-6xHis, His tag removed by HRV3C protease (site remnant remains); chain copies: 2; label: 5'-FAM on antisense strand; blunt"}, "[7]": {"biological_target": "PefR R89A (Streptococcus agalactiae, UniProt Q8E4J9 1-146, R89A)", "assay": "EMSA; apo; 1:1 dimer:DNA, 5 uM; EMSA: 20 mM Tris-HCl pH 7.4, 50 mM KCl, 5% glycerol, 0.2 M MgCl2, room temperature; FP: 40 mM HEPES/Na pH 7.4, 500 mM NaCl, 10% glycerol, 10 nM DNA, room temperature", "conditions": "protein: recombinant; tags: C-terminal HRV3C site-6xHis, removed; chain copies: 2; label: 5'-FAM on antisense strand; blunt"}, "[8]": {"biological_target": "PefR K75A (Streptococcus agalactiae, UniProt Q8E4J9 1-146, K75A)", "assay": "EMSA; apo; 1:1 dimer:DNA, 5 uM; similar to WT; EMSA: 20 mM Tris-HCl pH 7.4, 50 mM KCl, 5% glycerol, 0.2 M MgCl2, room temperature; FP: 40 mM HEPES/Na pH 7.4, 500 mM NaCl, 10% glycerol, 10 nM DNA, room temperature", "conditions": "protein: recombinant; tags: C-terminal HRV3C site-6xHis, removed; chain copies: 2; label: 5'-FAM on antisense strand; blunt"}, "[9]": {"biological_target": "PefR S62A (Streptococcus agalactiae, UniProt Q8E4J9 1-146, S62A)", "assay": "EMSA; apo; 1:1 dimer:DNA, 5 uM; similar to WT; EMSA: 20 mM Tris-HCl pH 7.4, 50 mM KCl, 5% glycerol, 0.2 M MgCl2, room temperature; FP: 40 mM HEPES/Na pH 7.4, 500 mM NaCl, 10% glycerol, 10 nM DNA, room temperature", "conditions": "protein: recombinant; tags: C-terminal HRV3C site-6xHis, removed; chain copies: 2; label: 5'-FAM on antisense strand; blunt"}, "[10]": {"biological_target": "PefR S67A (Streptococcus agalactiae, UniProt Q8E4J9 1-146, S67A)", "assay": "EMSA; apo; 1:1 dimer:DNA, 5 uM; similar to WT; EMSA: 20 mM Tris-HCl pH 7.4, 50 mM KCl, 5% glycerol, 0.2 M MgCl2, room temperature; FP: 40 mM HEPES/Na pH 7.4, 500 mM NaCl, 10% glycerol, 10 nM DNA, room temperature", "conditions": "protein: recombinant; tags: C-terminal HRV3C site-6xHis, removed; chain copies: 2; label: 5'-FAM on antisense strand; blunt"}, "[11]": {"biological_target": "PefR K63A (Streptococcus agalactiae, UniProt Q8E4J9 1-146, K63A)", "assay": "EMSA; apo; 1:1 dimer:DNA, 5 uM; similar to WT; EMSA: 20 mM Tris-HCl pH 7.4, 50 mM KCl, 5% glycerol, 0.2 M MgCl2, room temperature; FP: 40 mM HEPES/Na pH 7.4, 500 mM NaCl, 10% glycerol, 10 nM DNA, room temperature", "conditions": "protein: recombinant; tags: C-terminal HRV3C site-6xHis, removed; chain copies: 2; label: 5'-FAM on antisense strand; blunt"}, "[12]": {"biological_target": "PefR K53A (Streptococcus agalactiae, UniProt Q8E4J9 1-146, K53A)", "assay": "EMSA; apo; 1:1 dimer:DNA, 5 uM; similar to WT; EMSA: 20 mM Tris-HCl pH 7.4, 50 mM KCl, 5% glycerol, 0.2 M MgCl2, room temperature; FP: 40 mM HEPES/Na pH 7.4, 500 mM NaCl, 10% glycerol, 10 nM DNA, room temperature", "conditions": "protein: recombinant; tags: C-terminal HRV3C site-6xHis, removed; chain copies: 2; label: 5'-FAM on antisense strand; blunt"}, "[13]": {"biological_target": "T3, PefR", "assay": "EMSA; apo (heme-free); EMSA: 20 mM Tris-HCl pH 7.4, 50 mM KCl, 5% glycerol, 0.2 M MgCl2, room temperature; FP: 40 mM HEPES/Na pH 7.4, 500 mM NaCl, 10% glycerol, 10 nM DNA, room temperature", "conditions": "protein: recombinant; tags: C-terminal HRV3C site-6xHis, His tag removed by HRV3C protease (site remnant remains); chain copies: 2; label: 5'-FAM on antisense strand; blunt"}, "[14]": {"biological_target": "T3, PefR", "assay": "X-ray crystallography; apo (heme-free), 2.5 A; EMSA: 20 mM Tris-HCl pH 7.4, 50 mM KCl, 5% glycerol, 0.2 M MgCl2, room temperature; FP: 40 mM HEPES/Na pH 7.4, 500 mM NaCl, 10% glycerol, 10 nM DNA, room temperature", "conditions": "protein: recombinant; tags: C-terminal HRV3C site-6xHis, His tag removed by HRV3C protease (site remnant remains); chain copies: 2; blunt"}}, "data": [{"molecule": "PefR (porphyrin-regulated efflux regulator) from Streptococcus agalactiae, non-His-tagged (natural protein)", "values": [{"measurement": "stoichiometry N", "setting": "[1]", "value": 2}, {"measurement": "stoichiometry N", "setting": "[2]", "value": 2}]}, {"molecule": "[C-]#[O+]", "note": "[carbon monoxide]", "values": [{"measurement": "Kd", "setting": "[3]", "value": "0.11 and 0.033 μM"}]}, {"molecule": "C=CC1=C(C)C2=Cc3c(C=C)c(C)c4[n]3[Fe][n]3c(c(C)c(CCC(=O)O)c3=CC3=NC(=C4)C(C)=C3CCC(=O)O)=CC1=N2", "note": "[heme]", "values": [{"measurement": "Kd", "setting": "[4]", "value": 610, "unit": "nM"}]}, {"molecule": "B1", "values": [{"measurement": "Kd", "setting": "[5]", "value": "~25", "unit": "nM"}, {"measurement": "Kd", "setting": "[6]", "value": 40, "unit": "nM"}]}, {"molecule": "B2", "values": [{"measurement": "binding result", "setting": "[7]", "value": "no binding"}, {"measurement": "binding result", "setting": "[8]", "value": "binds"}, {"measurement": "binding result", "setting": "[9]", "value": "binds"}, {"measurement": "binding result", "setting": "[10]", "value": "binds"}, {"measurement": "binding result", "setting": "[11]", "value": "binds"}, {"measurement": "binding result", "setting": "[12]", "value": "binds"}]}, {"molecule": "B3", "values": [{"measurement": "binding result", "setting": "[13]", "value": "binds"}]}, {"molecule": "B4", "values": [{"measurement": "binding result", "setting": "[13]", "value": "no binding"}]}, {"molecule": "B5", "values": [{"measurement": "binding result", "setting": "[14]", "value": "binds"}]}]}
